The target of data set [1] is IL-12p70-L3-TM (UniProt P43432).
Data set [2] has as its target IL-12p70-L4s-TM (UniProt P43432).
The target in data set [3] is IL-12p70-L4-TM (UniProt P43432).
The target in data set [4] is IL-12p70-L5-TM (UniProt P43432).
Data set [5] has as its target IL-12p70-L2-TM (UniProt P43432).

Chain of activated murine MMP2 (matrix metalloprotease 2) (chain, as listed by the source): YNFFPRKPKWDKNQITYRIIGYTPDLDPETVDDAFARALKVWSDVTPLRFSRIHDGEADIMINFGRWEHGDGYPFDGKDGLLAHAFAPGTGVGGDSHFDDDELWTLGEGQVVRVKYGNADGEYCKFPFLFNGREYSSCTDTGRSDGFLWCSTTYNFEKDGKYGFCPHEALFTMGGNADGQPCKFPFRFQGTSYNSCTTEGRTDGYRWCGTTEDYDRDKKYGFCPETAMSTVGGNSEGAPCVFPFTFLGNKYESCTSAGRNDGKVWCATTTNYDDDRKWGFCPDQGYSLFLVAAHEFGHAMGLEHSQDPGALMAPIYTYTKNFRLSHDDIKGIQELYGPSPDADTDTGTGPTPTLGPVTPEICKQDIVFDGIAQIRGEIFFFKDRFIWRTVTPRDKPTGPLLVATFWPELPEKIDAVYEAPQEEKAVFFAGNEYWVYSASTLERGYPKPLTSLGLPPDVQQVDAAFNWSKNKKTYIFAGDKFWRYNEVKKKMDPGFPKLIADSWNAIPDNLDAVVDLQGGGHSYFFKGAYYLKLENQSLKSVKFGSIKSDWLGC
Chain of IL-12p70-L2-TM (P43432 other isoform, or with tags, fused parts or gaps): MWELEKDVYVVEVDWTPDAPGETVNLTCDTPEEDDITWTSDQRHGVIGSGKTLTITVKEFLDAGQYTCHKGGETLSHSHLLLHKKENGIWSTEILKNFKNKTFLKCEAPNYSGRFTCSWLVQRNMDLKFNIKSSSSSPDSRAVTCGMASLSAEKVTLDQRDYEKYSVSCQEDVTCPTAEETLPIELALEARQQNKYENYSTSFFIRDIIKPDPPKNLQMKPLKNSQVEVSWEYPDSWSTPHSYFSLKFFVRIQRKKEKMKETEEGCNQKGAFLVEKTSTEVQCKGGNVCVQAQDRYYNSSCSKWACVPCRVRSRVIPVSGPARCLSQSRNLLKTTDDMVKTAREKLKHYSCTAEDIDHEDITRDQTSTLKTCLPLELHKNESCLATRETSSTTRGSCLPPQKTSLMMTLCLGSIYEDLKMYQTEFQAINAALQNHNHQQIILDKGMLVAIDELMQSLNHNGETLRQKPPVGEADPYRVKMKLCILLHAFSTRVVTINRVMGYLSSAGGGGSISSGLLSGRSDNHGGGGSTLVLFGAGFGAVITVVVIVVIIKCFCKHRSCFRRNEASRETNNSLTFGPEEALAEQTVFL
Chain of IL-12p70-L4s-TM (P43432 other isoform, or with tags, fused parts or gaps): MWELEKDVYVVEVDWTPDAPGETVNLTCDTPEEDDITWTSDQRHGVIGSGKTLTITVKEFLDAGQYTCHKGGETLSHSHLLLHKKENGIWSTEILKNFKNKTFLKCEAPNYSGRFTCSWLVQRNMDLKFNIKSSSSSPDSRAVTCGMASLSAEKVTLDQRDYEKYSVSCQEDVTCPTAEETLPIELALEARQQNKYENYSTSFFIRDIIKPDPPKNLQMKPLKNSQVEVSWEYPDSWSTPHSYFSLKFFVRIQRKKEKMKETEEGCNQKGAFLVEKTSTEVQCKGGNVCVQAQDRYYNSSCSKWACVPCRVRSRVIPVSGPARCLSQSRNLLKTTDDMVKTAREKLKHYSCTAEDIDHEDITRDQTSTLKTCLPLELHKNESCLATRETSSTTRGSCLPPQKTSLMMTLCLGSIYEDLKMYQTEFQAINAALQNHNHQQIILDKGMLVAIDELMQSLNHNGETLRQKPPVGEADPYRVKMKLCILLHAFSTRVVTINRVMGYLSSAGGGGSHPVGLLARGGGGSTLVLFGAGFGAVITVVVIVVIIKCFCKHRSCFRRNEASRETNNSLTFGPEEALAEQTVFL
Chain of IL-12p70-L4-TM (P43432 other isoform, or with tags, fused parts or gaps): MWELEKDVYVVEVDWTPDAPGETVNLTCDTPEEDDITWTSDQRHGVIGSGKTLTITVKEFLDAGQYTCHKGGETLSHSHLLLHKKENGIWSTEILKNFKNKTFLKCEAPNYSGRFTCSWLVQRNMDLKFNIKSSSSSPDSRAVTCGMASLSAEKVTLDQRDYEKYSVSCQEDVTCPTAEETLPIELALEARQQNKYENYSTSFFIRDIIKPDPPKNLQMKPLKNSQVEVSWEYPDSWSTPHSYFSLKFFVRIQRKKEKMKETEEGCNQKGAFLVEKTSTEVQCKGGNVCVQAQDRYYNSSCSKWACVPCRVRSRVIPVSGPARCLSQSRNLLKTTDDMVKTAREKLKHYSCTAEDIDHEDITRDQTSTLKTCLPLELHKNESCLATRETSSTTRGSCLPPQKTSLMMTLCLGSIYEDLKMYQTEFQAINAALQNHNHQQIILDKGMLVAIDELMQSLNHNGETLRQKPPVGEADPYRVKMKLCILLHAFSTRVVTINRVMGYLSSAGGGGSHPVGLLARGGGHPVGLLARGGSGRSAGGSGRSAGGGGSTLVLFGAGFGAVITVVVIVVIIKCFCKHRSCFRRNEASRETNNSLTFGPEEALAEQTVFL
Chain of IL-12p70-L3-TM (P43432 other isoform, or with tags, fused parts or gaps): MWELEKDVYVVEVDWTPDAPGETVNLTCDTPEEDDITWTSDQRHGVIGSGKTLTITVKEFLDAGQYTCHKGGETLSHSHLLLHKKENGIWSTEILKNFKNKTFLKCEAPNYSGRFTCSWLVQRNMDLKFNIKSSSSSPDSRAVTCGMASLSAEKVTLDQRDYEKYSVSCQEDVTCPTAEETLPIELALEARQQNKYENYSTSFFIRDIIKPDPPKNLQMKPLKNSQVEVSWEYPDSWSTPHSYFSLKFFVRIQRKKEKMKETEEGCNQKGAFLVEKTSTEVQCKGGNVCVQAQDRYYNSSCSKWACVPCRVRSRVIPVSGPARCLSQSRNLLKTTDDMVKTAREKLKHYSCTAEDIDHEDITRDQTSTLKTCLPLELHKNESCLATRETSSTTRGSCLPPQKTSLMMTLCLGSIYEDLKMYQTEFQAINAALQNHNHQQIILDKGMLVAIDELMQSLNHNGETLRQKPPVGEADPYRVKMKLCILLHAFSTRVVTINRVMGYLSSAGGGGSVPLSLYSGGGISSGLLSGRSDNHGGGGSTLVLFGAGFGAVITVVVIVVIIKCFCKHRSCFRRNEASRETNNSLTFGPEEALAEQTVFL
Chain of IL-12p70-L5-TM (P43432 other isoform, or with tags, fused parts or gaps): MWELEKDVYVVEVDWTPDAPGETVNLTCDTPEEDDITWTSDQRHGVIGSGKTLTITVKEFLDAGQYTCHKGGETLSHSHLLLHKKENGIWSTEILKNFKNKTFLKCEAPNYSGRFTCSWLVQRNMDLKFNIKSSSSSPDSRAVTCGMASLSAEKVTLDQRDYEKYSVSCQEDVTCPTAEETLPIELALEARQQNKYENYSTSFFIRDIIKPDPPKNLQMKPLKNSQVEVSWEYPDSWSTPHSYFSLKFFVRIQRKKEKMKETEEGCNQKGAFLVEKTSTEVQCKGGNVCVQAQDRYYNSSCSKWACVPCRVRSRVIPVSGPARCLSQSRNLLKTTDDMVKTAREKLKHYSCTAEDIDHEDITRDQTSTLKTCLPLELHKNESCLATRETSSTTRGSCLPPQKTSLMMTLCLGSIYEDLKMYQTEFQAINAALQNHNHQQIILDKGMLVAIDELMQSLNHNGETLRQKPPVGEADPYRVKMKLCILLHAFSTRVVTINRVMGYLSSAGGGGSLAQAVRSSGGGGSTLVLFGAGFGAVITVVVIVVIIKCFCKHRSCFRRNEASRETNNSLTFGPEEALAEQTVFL

For the substance “activated murine MMP2 (matrix metalloprotease 2)”, the “release of cleaved (therefore soluble) IL-12p70 into the supernatant, ELISA” value in data set [1], in data set [2], in data set [3], in data set [4] and in data set [5] was “a time-dependent release of IL-12p70 was observed” in each case.

The record behind these values is US20260152536.
